{
  "source": "patent US20250034222A1",
  "about": "“IL-38 VARIANTS” (Monash University, priority 2021, published 2025)",
  "test": "Nano differential scanning fluorimetry of IL-38-Fc variants (apparent melting temperature)",
  "format": "physicochemical",
  "details": "N-terminal IL-38-Fc variants, knobs-into-holes IgG1-Fc, IL-38 (C70V, C37S, C38R, C43A, C67A, C123S)",
  "excerpt": "Indicated IL-38 chains differing in their N-terminus were expressed and purified from Expi293 cells. The relative purification yield is indicated between the N-terminal variants. The stability of the purified product was monitored by nano differential scanning fluorimetry and is expressed as the apparent melting temperature (Tm). N-terminal variants (except 2-152) were trialled as “knobs-into-holes” IgG1-Fc fusions utilising the IL-38 (C70V, C37S, C38R, C43A, C67A, C123S) sequence. The 2-152 N-terminal variant was trialled as “knobs-into-holes” IgG1-Fc fusions utilising the IL-38 (C2A, C70V, C37S, C38R, C43A, C67A, C123S) sequence.\nIndicated linker variants were expressed and purified from Expi293 cells. The relative purification yield is indicated between the linker variants. The stability of the purified product was monitored by nano differential scanning fluorimetry and is expressed as the apparent melting temperature (Tm). […] All N-terminal linker variants were trialled as “knobs-into-holes” IgG1-Fc fusions utilising the IL-38 (C70V, C37S, C38R, C43A, C67A, C123S) sequence.",
  "data": [
    {"substance": "3-152: Knobs-into-holes IgG1-Fc fusion, IL-38 chain residues 3-152 (C70V, C37S, C38R, C43A, C67A, C123S); probably SEQ ID NO: 25/26", "values": [
      {"measurement": "Stability (apparent melting temperature, Tm)", "result": 66.0, "unit": "°C"}
    ]}
  ]
}
